In patent publication US20180021429A1, “ANTICANCER AGENTS OR ANTIMETASTATIC AGENTS USING FSTL1 AND COMBINATION DRUG THEREOF” (PHARMA FOODS INTERNATIONAL CO., LTD., priority 2015, published 2018):
Entries after “also recorded” stand apart in the source; their conditions may differ.

Key:
[1] = test system: induction of mesenchymal stem cells (MSCs) by FSTL1; experiment: Inhibitory activity against induction of MSC by FSTL1, CD45-negative cells (Examples 6, 8, 12); format: cell-based, mouse; settings: antibody 10 μg/mL
Experimental: (§1) Mouse bone marrow cells prepared in the same way as in Example 4 were supplemented with 50 ng/mL (final concentration) of FSTL1 and 10 μg/mL of the anti-FSTL1 antibody (#5-2, #5-3, #5-8, #5-10, 45-43, #6-55, or #7-34) or a control antibody anti-DNP antibody and cultured under stimulation. 11 days thereafter, the number of cells was counted while the cells were stained with a PE-Cy5-labeled anti-CD45 antibody (BD Pharmingen/Becton, Dickinson and Company, Cat. No. 555484), and the content of CD45-negative cells reported to generally contain MSCs at a high rate was analyzed by flow cytometry using FACScan to calculate the percentage and number of MSCs per culture (FIG. 5A).
Mouse bone marrow cells prepared in the same way as in Example 4 were supplemented with 20 ng/mL (final concentration) of FSTL1 and 10 μg/mL of the anti-FSTL1 antibody (#5-2, #5-3, #5-8, #5-10, #5-43, #6-55, #8-1, #8-4, #8-7, and #8-8) or a control antibody anti-DNP antibody and cultured under stimulation. 8 days thereafter, the number of cells was counted while the cells were stained with a PE-Cy5-labeled anti-CD45 antibody, and the content of CD45-negative cells was analyzed by flow cytometry using FACScan to calculate the percentage and number of MSCs per culture (FIG. 6A).
Mouse bone marrow cells prepared in the same way as in Example 4 were supplemented with 20 ng/mL (final concentration) of FSTL1 and 10 μg/mL of the anti-FSTL1 antibody (#5-2, #5-8, #6-55, #7-34, #8-1, #8-4, #8-7, or #8-8) or a control antibody anti-DNP antibody and cultured under stimulation. 8 days thereafter, the number of cells was counted while the cells were stained with a PE-Cy5-labeled anti-CD45 antibody, and the content of CD45-negative cells was analyzed by flow cytometry using FACScan to calculate the percentage and number of MSCs per culture (FIG. 7).
as §1, with “35A).” for “5A).”
Mouse bone marrow cells prepared in the same way as in Example 4 were supplemented with 20 ng/mL (final concentration) of FSTL1 and 10 μg/mL of the anti-FSTL1 antibody (#5-2, #5-3, #5-8, #5-10, #5-43, #6-55, #8-1, #8-4, #8-7, and #8-8) or a control antibody anti-DNP antibody and cultured under stimulation. 8 days thereafter, the number of cells was counted while the cells were stained with a PE-Cy5-labeled anti-CD45 antibody, and the content of CD45-negative cells was analyzed by flow cytometry using FACScan to calculate the percentage and number of MSCs per culture (FIG. 36A).
Mouse bone marrow cells prepared in the same way as in Example 4 were supplemented with 20 ng/mL (final concentration) of FSTL1 and 10 μg/mL of the anti-FSTL1 antibody (#5-2, #5-8, #6-55, #7-34, #8-1, #8-4, #8-7, or #8-8) or a control antibody anti-DNP antibody and cultured under stimulation. 8 days thereafter, the number of cells was counted while the cells were stained with a PE-Cy5-labeled anti-CD45 antibody, and the content of CD45-negative cells was analyzed by flow cytometry using FACScan to calculate the percentage and number of MSCs per culture (FIG. 37).

FSTL1 = target: T1, FSTL1 (Homo sapiens, UniProt Q12841); experiment: Inhibition of MSC induction by FSTL1 in mouse bone marrow cells, CD45-negative cells (Examples 6, 8, 12); format: cell-based; parameters: purchased R&D Systems, Inc. 1694-FN-050; settings: antibody 10 μg/mL
T1 sequence (Q12841 21-308): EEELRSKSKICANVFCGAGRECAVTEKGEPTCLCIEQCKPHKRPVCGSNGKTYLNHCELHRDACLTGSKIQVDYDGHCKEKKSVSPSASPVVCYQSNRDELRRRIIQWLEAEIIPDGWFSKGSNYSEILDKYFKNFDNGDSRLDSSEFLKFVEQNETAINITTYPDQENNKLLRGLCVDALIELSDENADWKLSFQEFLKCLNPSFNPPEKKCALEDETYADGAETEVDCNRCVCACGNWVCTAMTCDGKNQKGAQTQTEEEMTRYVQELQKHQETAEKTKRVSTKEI
Experimental: as §1, with “CD45− negative” for “CD45-negative”, “67A).” for “5A).”
Mouse bone marrow cells prepared in the same way as in Example 4 were supplemented with 20 ng/mL (final concentration) of FSTL1 and 10 μg/mL of the anti-FSTL1 antibody (#5-2, #5-3, #5-8, #5-10, #5-43, #6-55, #8-1, #8-4, #8-7, and #8-8) or a control antibody anti-DNP antibody and cultured under stimulation. 8 days thereafter, the number of cells was counted while the cells were stained with a PE-Cy5-labeled anti-CD45 antibody, and the content of CD45− negative cells was analyzed by flow cytometry using FACScan to calculate the percentage and number of MSCs per culture (FIG. 68A).
Mouse bone marrow cells prepared in the same way as in Example 4 were supplemented with 20 ng/mL (final concentration) of FSTL1 and 10 μg/mL of the anti-FSTL1 antibody (#5-2, #5-8, #6-55, #7-34, #8-1, #8-4, #8-7, or #8-8) or a control antibody anti-DNP antibody and cultured under stimulation. 8 days thereafter, the number of cells was counted while the cells were stained with a PE-Cy5-labeled anti-CD45 antibody, and the content of CD45− negative cells was analyzed by flow cytometry using FACScan to calculate the percentage and number of MSCs per culture (FIG. 69).

[2] = Example 8, FIG. 6A/36A, FSTL1 20 ng/mL, 8 days
[3] = Example 8, FSTL1 20 ng/mL, 8 days

B1: #5-8: chicken-mouse chimeric anti-FSTL1 antibody clone; variable regions SEQ ID NO: 771 (light), 773 (heavy) (antibody, V domains shown)
VH: AVTLDESGGGLQTPGGGLSLVCKGSGFTFSSFNMFWVRQAPGKGLEWVAGIGKDGVPKYGTAVDGRATISKDNGQSTMRLQLNNLRAEDTGTYFCAKAAGGCSYDWCGIYTGDIDTWGHGTEVIVSS
VL: ASTQPSSVSANPGEAVKITCSGGSGSYYGWYQQKSPGSAPVTVIYNNNQRPSDIPSRFSGSKSGSTATLTITGVQAEDEAVYFCGGYDSSTGHGGIFGAGTTLTVL
modifications: mouse constant regions
- inhibitory activity against the expansion of CD45-negative cells by FSTL1 ([1]; Example 6, FIG. 5A/35A, FSTL1 50 ng/mL, 11 days): higher inhibitory activity and substantially completely inhibited the action of FSTL1
- inhibitory activity against the expansion of CD45-negative cells by FSTL1 [1, 2]: exhibited inhibitory activity against the expansion of CD45-negative cells by FSTL1; also recorded: Inhibitory activity was confirmed
- inhibitory activity against the expansion of CD45-negative cells by FSTL1 (FSTL1; Example 6, FSTL1 50 ng/mL, 11 days): higher inhibitory activity and substantially completely inhibited the action of FSTL1
- inhibitory activity against the expansion of CD45-negative cells by FSTL1 (FSTL1; [3]): Inhibitory activity was confirmed; also recorded: exhibited inhibitory activity

B2: #5-2: chicken-mouse chimeric anti-FSTL1 antibody clone; variable regions SEQ ID NO: 763 (light), 765 (heavy) (antibody, V domains shown)
VH: AVTLDESGGGLQTPGGGLSLVCKGSGFTFSSFNMFWVRQAPGKGLEWVAGVGKDGGTGYGAAVDGRATISKDNGQSTLRLQLNNLRAEDTGTYYCAKAAGGCSYGWCGSYVGDIDAWGHGTEVIVSS
VL: ASTQPSSVSANPGEAVKITCSGGSGSYYGWYQQKSPGSAPVTVIYNNNQRPSDIPSRFSGSKSGSTATLTITGVQAEDEAVYFCGGYDSSTGHGGIFGAGTTLTVL
modifications: mouse constant regions
- inhibitory activity against the expansion of CD45-negative cells by FSTL1 ([1]; Example 12, FIG. 7/37, FSTL1 20 ng/mL, 8 days): higher inhibitory activity was confirmed in the order of #7-34, #5-2, #6-55, and #8-7; also recorded: stronger inhibitory activity was confirmed in the order of clone #7-34, #5-2, 46-55, and #8-7
- inhibitory activity against the expansion of CD45-negative cells by FSTL1 (FSTL1; Example 12, FSTL1 20 ng/mL, 8 days): stronger inhibitory activity was confirmed in the order of clone #7-34, #5-2, 46-55, and #8-7; also recorded: higher inhibitory activity was confirmed in the order of #7-34, #5-2, #6-55, and #8-7; also recorded: stronger inhibitory activity was confirmed in the order of clone #7-34, #5-2, 96-55, and #8-7

B3: #8-1: chicken-mouse chimeric anti-FSTL1 antibody clone; variable regions SEQ ID NO: 791 (light), 793 (heavy) (antibody, V domains shown)
VH: AVTLDESGGGLQTPGGALSLVCKGSGFTFSSFNMFWVRQAPGKGLEWVAGIGKDGVPKYGAAVDGRATISKDNGQSTMRLQLNNLRAEDTGTYFCAKAAGGCSYDWCGIYAGDIDTWGHGTEVIVSS
VL: ASTQPSSVSANPGEAVKITCSGGSGSYYGWYQQKSPGSAPVTVIYNNNQRPSDIPSRFSGSKSGSTATLTITGVQAEDEAVYFCGGYDSSSGHGGIFGAGTTLTVL
modifications: mouse constant regions
- inhibitory activity against the expansion of CD45-negative cells by FSTL1 [1, 2]: exhibited inhibitory activity against the expansion of CD45-negative cells by FSTL1; also recorded: Inhibitory activity was confirmed
- inhibitory activity against the expansion of CD45-negative cells by FSTL1 (FSTL1; [3]): Inhibitory activity was confirmed; also recorded: exhibited inhibitory activity

B4: #8-4: chicken-mouse chimeric anti-FSTL1 antibody clone; variable regions SEQ ID NO: 795 (light), 797 (heavy) (antibody, V domains shown)
VH: AVTLDESGGGLQTPGGGLSLVCKGSGFTLSSFNMFWVRQAPGKGLEWVAGVGKDGGTAYGAAVDGRATISRDSGQSTVRLQLNNLRAEDTGTYFCAKAAGGCSYSWCGAYVGDLDAWGHGTEVIVSS
VL: ASSQPSSVSANPGETVKITCSGGSGYYYGWYQQKSPGSAPVTVIYNNDNKPSDIPSRFSGSKSGSTGTLTITGVQVEDEAVYFCGGYDNSGTGIFGAGTTLTVL
modifications: mouse constant regions
- inhibitory activity against the expansion of CD45-negative cells by FSTL1 [1, 2]: exhibited inhibitory activity against the expansion of CD45-negative cells by FSTL1
- inhibitory activity against the expansion of CD45-negative cells by FSTL1 (FSTL1; [3]): exhibited inhibitory activity
